The results in this text go back to US20150139982A1 (ALETHIA BIOTHERAPEUTICS, published 2015).

Assay [1] deals with T1, Fc-Siglec-15 fusion protein (Homo sapiens (Human), UniProt Q6ZMC9 20-259, limits assumed).
T1 construct: also called recombinant Siglec-15; purified Fc-Siglec-15; not shown: Fc region
T1 sequence: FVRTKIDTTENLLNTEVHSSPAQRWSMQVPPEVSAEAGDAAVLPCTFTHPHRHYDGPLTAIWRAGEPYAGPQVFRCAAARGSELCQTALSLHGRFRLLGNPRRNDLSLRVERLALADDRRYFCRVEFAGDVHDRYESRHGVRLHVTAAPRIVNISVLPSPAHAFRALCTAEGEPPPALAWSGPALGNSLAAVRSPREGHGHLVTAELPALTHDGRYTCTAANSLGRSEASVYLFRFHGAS
The assay can be described thus: SPR, Fc-Siglec-15 immobilized, antibody injected at 100 to 1.23 nM, 1:1 fit. As for the experimental part: (§1) FIG. 12. SPR chromatograms illustrating the differences in binding parameters between the humanized 25E9 L1H1 IgG1 (left panel) and the humanized 25E9 L1H1 IgG2 (right panel). Purified Fc-Siglec-15 was immobilized (150RU) and humanized 25E9 was injected at the indicated concentrations (100 nM, 33.3 nM, 11.1 nM, 3.70 nM and 1.23 nM). The curves were fit with a 1:1 ratio.
(§2) More particularly, we compared the binding activity of the humanized 25E9 L1H1 IgG1 (the L1H1 IgG1 variant) with the humanized 25E9 L1H1 IgG2 (the L1H1 IgG2 variant) using SPR. The analysis was conducted using methods similar to what was described above (see Example 6). In this instance, Fc-Siglec-15 was immobilized on the chip and decreasing concentrations of the 25E9 antibody variants were injected (100 nM, 33.3 nM, 11.1 nM, 3.70 nM and 1.23 nM). […] The difference in binding was mostly contributed by a slower off-rate (kd) of the IgG1 compared to the IgG2.
(Surface plasmon resonance follows binding to a sensor surface in real time, without labels.)

Assay [2] concerns the target T1, Fc-Siglec-15 fusion protein. The assay can be described thus: SPR, Fc-Siglec-15 immobilized (150 RU), antibody injected at 100, 33.3, 11.1, 3.70 and 1.23 nM, 1:1 fit. Here is the method:
as §1, §2

Assay [3] concerns the target T2, human Siglec-15 (human, UniProt Q6ZMC9 20-328).
T2 construct: also called h-Siglec-15; CD33L3
T2 sequence: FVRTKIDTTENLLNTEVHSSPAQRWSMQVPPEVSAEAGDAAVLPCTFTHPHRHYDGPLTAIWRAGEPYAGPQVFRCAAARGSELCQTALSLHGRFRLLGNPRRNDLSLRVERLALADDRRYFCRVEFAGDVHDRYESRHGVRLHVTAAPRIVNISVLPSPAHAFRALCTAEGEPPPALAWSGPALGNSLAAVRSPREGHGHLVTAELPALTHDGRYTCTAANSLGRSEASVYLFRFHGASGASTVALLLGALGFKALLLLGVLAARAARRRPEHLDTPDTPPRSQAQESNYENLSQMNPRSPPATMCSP
The assay can be described thus: flow cytometry on 293-6E cells transfected with human Siglec-15. Here is the method:
(§3) We tested the ability of the humanized antibodies to interact with human Siglec-15 expressed on the surface of cultured cells. […] Twenty-four hours later, the cells were harvested, counted and 1×10⁵ cells were incubated with increasing concentrations of the humanized IgG1 variant of 25E9 for 1 hour at 4 C. Following a washing step with cold PBS, bound 25E9 was detected with an anti-human kappa light chain IgG conjugated to FITC. Fluorescently labeled cells were injected into a flow cytometer to measure the fluorescence signal on the surface of intact cells. […] The average KD was in the low nanomolar range. Furthermore, the binding parameters were very similar in the presence of the humanized 25E9 L1H1 IgG1 variant produced in either CHO cells or 293 cells. […] Similar results were obtained with other 25E9 humanized IgG1 antibody variants (the L1H2 IgG1, the L1H3 IgG1, the L1H4 IgG1 and, the L1H1 IgG2) or with the humanized 25D8 IgG2 antibody.
In general terms: A flow cytometer gives signals particle by particle.

Assay [4] concerns the target T2, human Siglec-15. The assay can be described thus: flow cytometry on 293-6E cells transfected with human Siglec-15 cDNA. The text has this: The average KD was in the low nanomolar range. Furthermore, the binding parameters were very similar in the presence of the humanized 25E9 L1H1 IgG1 variant produced in either CHO cells or 293 cells. […] Similar results were obtained with other 25E9 humanized IgG1 antibody variants (the L1H2 IgG1, the L1H3 IgG1, the L1H4 IgG1 and, the L1H1 IgG2) or with the humanized 25D8 IgG2 antibody.
Experiments were undertaken to examine the feasibility of targeting Siglec-15-expressing cells with an ADC. The humanized 25E9 L1H1 IgG1 variant was conjugated to a payload that is toxic to proliferating cells as well as non-proliferating or fully differentiated cells, in particular osteoclasts. The humanized 25E9 L1H1 IgG1 conjugated antibody was designated 25E9-ADC. Since the conjugation might affect the ability of 25E9 to interact with native Siglec-15, flow cytometry was conducted to measure the binding of the 25E9-ADC to Siglec-15 expressing cells.

Assay [5] concerns the target T2, human Siglec-15. The assay can be described thus: flow cytometry titration (0 to 4 µg/ml) on 293-6E cells transfected with human Siglec-15, detected with FITC anti-human kappa light chain; antibody made in 293 cells. As for the experimental part:
as §3

Assay [6] has as its target T2, human Siglec-15. The assay can be described thus: flow cytometry titration (0 to 4 µg/ml) on 293-6E cells transfected with human Siglec-15, detected with FITC anti-human kappa light chain; antibody made in CHO cells. As for the experimental part: as §3
Assay [7] addresses T2, human Siglec-15. The assay is described as follows: cell-based or functional assay.
Assay [8] addresses T1, Fc-Siglec-15 fusion protein. The assay is described as follows: SPR, Fc-Siglec-15 immobilized, antibody injected. As for the experimental part:
as §1, §2

Substitutions are numbered along the chain they refer to.

B1: humanized 25E9 L1H1 IgG2 variant (antibody)
light: DIVMTQSPLSLPVTPGEPASISCRSTKSLLHSNGNTYLYWYLQKPGQSPQLLIYRMSNLASGVPDRFSGSGSGTDFTLKISRVEAEDVGVYYCMQHLEYPFTFGGGTKVEIKRTVAAPSVFIFPPSDEQLKSGTASVVCLLNNFYPREAKVQWKVDNALQSGNSQESVTEQDSKDSTYSLSSTLTLSKADYEKHKVYACEVTHQGLSSPVTKSFNRGEC
heavy: EIQLQQSGAEVKKPGSSVKVSCKASGYTFTDYDMHWVRQAPGQGLEWMGTIDPETGGTAYNQKFKGRVTITADKSTSTAYMELSSLRSEDTAVYYCTSFYYTYSNYDVGFAYWGQGTLVTVSSASTKGPSVFPLAPCSRSTSESTAALGCLVKDYFPEPVTVSWNSGALTSGVHTFPAVLQSSGLYSLSSVVTVPSSNFGTQTYTCNVDHKPSNTKVDKTVERKCCVECPPCPAPPVAGPSVFLFPPKPKDTLMISRTPEVTCVVVDVSHEDPEVQFNWYVDGVEVHNAKTKPREEQFNSTFRVVSVLTVVHQDWLNGKEYKCKVSNKGLPAPIEKTISKTKGQPREPQVYTLPPSREEMTKNQVSLTCLVKGFYPSDIAVEWESNGQPENNYKTTPPMLDSDGSFFLYSKLTVDKSRWQQGNVFSCSVMHEALHNHYTQKSLSLSPGK
notes: Full-length human kappa / human IgG2; also called humanized 25E9 IgG2
B1 showed a Kd in assay [1] of 1.26 nM. In assay [2], this molecule yielded a koff of 0.000655 s⁻¹ and a kon of 520000 M⁻¹ s⁻¹.

B2: humanized 25E9 L1H2 IgG1 (antibody, V domains shown)
VH: EIQLQQSGAEVKKPGSSVKVSCKASGYTFTDYDMHWVRQAPGQGLEWIGTIDPETGGTAYNQKFKGRATLTADRSTSTAYMELSSLRSEDTAVYYCTSFYYTYSNYDVGFAYWGQGTLVTVSS
VL: DIVMTQSPLSLPVTPGEPASISCRSTKSLLHSNGNTYLYWYLQKPGQSPQLLIYRMSNLASGVPDRFSGSGSGTDFTLKISRVEAEDVGVYYCMQHLEYPFTFGGGTKVEIKR
notes: The residue ranges are those stated in CLM-00047 (item b)
As to B2, in the assay with human Siglec-15 [3], the binding result is listed as “binds”.

B3: humanized 25D8 IgG2 antibody (antibody, V domains shown)
VH: QVQLQQSGAEVKKPGSSVKVSCKASGYTFTSYWMHWVRQAPGQGLEWMGLINPSNARTNYNEKFNTRVTITADKSTSTAYMELSSLRSEDTAVYYCARGGDGDYFDYWGQGTTVTVSS
VL: B2 VL with S7T, T26S, N35I, R55Q, M94A, H96N, Y99L, F101Y
notes: Human kappa / human IgG2; also called humanized full-length IgG2 25D8
Turning to B3, in the assay with human Siglec-15 [3], the binding result is given as “binds”.

B4: 25E9-ADC (humanized 25E9 L1H1 IgG1 conjugated antibody) (antibody)
light: B1 light
heavy: not shown
modifications: conjugated to a toxic payload; payload, linker and attachment residues not stated
For the molecule B4, the “EC50 (read off the curve)” value with human Siglec-15 [4] was about 0.2 µg/mL.

B5: humanized 25E9 L1H4 IgG1 (antibody, V domains shown)
VH: B2 VH with R38K, Q43H, R67K, R87T
VL: B2 VL
notes: The residue ranges are those stated in CLM-00047 (item d)
Consider B5, for which the binding result with human Siglec-15 [3] was “binds”.

B6: humanized 25E9 L1H3 IgG1 (antibody, V domains shown)
VH: B2 VH with R38K, R67K
VL: B2 VL
notes: The residue ranges are those stated in CLM-00047 (item c)
On to B6, for which the binding result in the assay with human Siglec-15 [3] was “binds”.

B7: humanized 25E9 L1H1 IgG1 variant (antibody)
light: B1 light
heavy: not shown
notes: Full-length human kappa / human IgG1; Produced in CHO or 293 cells; also called humanized IgG1 variant of 25E9; unconjugated 25E9
Regarding B7, the values for the Kd (with human Siglec-15 [5]; with human Siglec-15 [6]; in assay [1]) were 1.9 nM, 5.7 nM and 0.164 nM, respectively. The “fold difference in potency against the humanized 25E9 L1H1 IgG2 variant (osteoclast differentiation)” value with human Siglec-15 [7] is about 100 fold. This molecule also had a koff in assay [2] of 0.000151 s⁻¹. Further, the kon in assay [2] was found to be 921000 M⁻¹ s⁻¹. Also, in the assay with human Siglec-15 [4], the “EC50 (read off the curve)” value was about 0.1 µg/mL. Also, the “fold higher affinity than the humanized 25E9 L1H1 IgG2 variant” value in assay [8] was about 10 fold.

One may read the Kd as the free concentration of one partner at which half of the binding sites on the other are occupied at equilibrium, for simple one-to-one binding. Low values mean tighter binding, high ones weaker binding. The term koff denotes the rate constant with which the complex falls apart. High values mean a short-lived complex, low ones a long-lived complex. As a reminder, the kon is the rate constant with which the complex forms. The EC50 (read off the curve) is the midpoint of the concentration-response curve. Read a low EC50 (read off the curve) as an effect from little substance.
